# Experimental data published in the RNAGym collection of RNA variant scans (doi:10.7554/elife.80360).
# B1: HDV Ribozyme (parent)
# chain: GGCCGGCAUGGUCCCAGCCUCCUCGCUGGCGCCGGCUGGGCAACAUUCCGAGGGGACCGUCCCCUCGGUAAUGGCGAAUGGGACCCA
# Variants of: B1
# Test: self-cleavage, relative activity (ratio to wild type); higher = more cleavage; co-transcriptional
row,Variant,self-cleavage
1,GGCCGGCAUGGUCCCAGCCUCCUCGCUGGCGCCGGCUGGGCAACAUUCCGAGAGGACGGUCCCCUCGGUAAUGGCGAAUGGGACCCA,0.935
2,GGCCGGCAUGGUCCCAGCCUCCUCGCUGGCGCCGGCUGGGCAACAUUCCGAGAGGACCGUCCCCUCGGUAAUGGCUAAUGGGACCCA,1.11
3,GGCCGGCAUGGUCCCAGCCUCCUCGCUGGCGCCGGCUGGGCAACAUUCCGAGAGGACCGUCCCCUCGGUAAUGGCAAAUGGGACCCA,1.16
4,GGCCGGCAUGGUCCCAGCCUCCUCGCUGGCGCCGGCUGGGCAACAUUCCGAGAGGACCGUCCCCUCGGUAAUGGCGAAGGGGACCCA,0.554
5,GGCCGGCAUGGUCCCAGCCUCCUCGCUGGCGCCGGCUGGGCAACAUUCCGAGUGGACCGUCCCCUCGGUAAUGGCGGAUGGGACCCA,0.8
6,GGCCGGCAUGGUCCCAGCCUCCUCGCUGGCGCCGGCUGGGCAACAUUCCGAGUGGACCGUCCCCUCGGUAAUGGCGAAUGGGACCGA,1.12
7,GGCCGGCAUGGUCCCAGCCUCCUCGCUGGCGCCGGCUGGGCAACAUUCCGAGAUGACCGUCCCCUCGGUAAUGGCGAAUGGGACCCA,0.962
8,GGCCGGCAUGGUCCCAGCCUCCUCGCUGGCGCCGGCUGGGCAACAUUCCGAGCGGACCGUCCCCUCGGUAAUGGCGAAUGGGACCCC,1.01
9,GGCCGGCAUGGUCCCAGCCUCCUCGCUGGCGCCGGCUGGGCAACAUUCCGAGCGGACCGUCCCCUCGGUAAUGGCGGAUGGGACCCA,0.88
10,GGCCGGCAUGGUCCCAGCCUCCUCGCUGGCGCCGGCUGGGCAACAUUCCGAGAGGACCGUCCCCGCGGUAAUGGCGAAUGGGACCCA,0.708
11,GGCCGGCAUGGUCCCAGCCUCCUCGCUGGCGCCGGCUGGGCAACAUUCCGAGCGGACCGUCCCCUCGGUAAUGGCGAAUGGGACCAA,0.866
12,GGCCGGCAUGGUCCCAGCCUCCUCGCUGGCGCCGGCUGGGCAACAUUCCGAGCGGACCGUCCCCUCGGUACUGGCGAAUGGGACCCA,0.356
13,GGCCGGCAUGGUCCCAGCCUCCUCGCUGGCGCCGGCUGGGCAACAUUCCGAGCGGACCGUCCCCUCGGUAGUGGCGAAUGGGACCCA,1.07
14,GGCCGGCAUGGUCCCAGCCUCCUCGCUGGCGCCGGCUGGGCAACAUUCCGAGUGGACCGUCCCCUCGGUAUUGGCGAAUGGGACCCA,0.92
15,GGCCGGCAUGGUCCCAGCCUCCUCGCUGGCGCCGGCUGGGCAACAUUCCGAGAGGACCGUCCUCUCGGUAAUGGCGAAUGGGACCCA,0.812
16,GGCCGGCAUGGUCCCAGCCUCCUCGCUGGCGCCGGCUGGGCAACAUUCCGAGUGGACCGUCCCAUCGGUAAUGGCGAAUGGGACCCA,0.777
17,GGCCGGCAUGGUCCCAGCCUCCUCGCUGGCGCCGGCUGGGCAACAUUCCGAGCGGAACGUCCCCUCGGUAAUGGCGAAUGGGACCCA,0.95
18,GGCCGGCAUGGUCCCAGCCUCCUCGCUGGCGCCGGCUGGGCAACAUUCCGAGUGGACCGUCCCCUCCGUAAUGGCGAAUGGGACCCA,0.534
19,GGCCGGCAUGGUCCCAGCCUCCUCGCUGGCGCCGGCUGGGCAACAUUCCGAGCGGACCGUCGCCUCGGUAAUGGCGAAUGGGACCCA,1.01
20,GGCCGGCAUGGUCCCAGCCUCCUCGCUGGCGCCGGCUGGGCAACAUUCCGAGCGGACCGUCCCCACGGUAAUGGCGAAUGGGACCCA,0.629
21,GGCCGGCAUGGUCCCAGCCUCCUCGCUGGCGCCGGCUGGGCAACAUUCCGAGCGGACCGUCCCCCCGGUAAUGGCGAAUGGGACCCA,0.772
22,GGCCGGCAUGGUCCCAGCCUCCUCGCUGGCGCCGGCUGGGCAACAUUCCGAGCGGACCGUCCCCUCGGUAAUGGCAAAUGGGACCCA,0.882

row,Variant,self-cleavage
1,GGCCGGCAUGGUCCCAGCCUCCUCGCUGGCGCCGGCUGGGCAACAUUCCGAGCGGACCGUCCCCUCGGUAAUGGCCAAUGGGACCCA,0.991
2,GGCCGGCAUGGUCCCAGCCUCCUCGCUGGCGCCGGCUGGGCAACAUUCCGAGCGGACCGGCCCCUCGGUAAUGGCGAAUGGGACCCA,1.01
3,GGCCGGCAUGGUCCCAGCCUCCUCGCUGGCGCCGGCUGGGCAACAUUCCGAGCGGACCGUCCCCUCGGUAAUGGCGAAUGCGACCCA,0.0665
4,GGCCGGCAUGGUCCCAGCCUCCUCGCUGGCGCCGGCUGGGCAACAUUCCGAGAGGACCGUCCCCUCGGUAAUGGCGAAUGGGAUCCA,0.777
5,GGCCGGCAUGGUCCCAGCCUCCUCGCUGGCGCCGGCUGGGCAACAUUCCGAGAGGACCGUGCCCUCGGUAAUGGCGAAUGGGACCCA,0.751
6,GGCCGGCAUGGUCCCAGCCUCCUCGCUGGCGCCGGCUGGGCAACAUUCCGAGUGGACCGUCCCCUAGGUAAUGGCGAAUGGGACCCA,0.937
7,GGCCGGCAUGGUCCCAGCCUCCUCGCUGGCGCCGGCUGGGCAACAUUCCGAGUGGACCGUCCCCUCGGUAAUGGCGAUUGGGACCCA,0.251
8,GGCCGGCAUGGUCCCAGCCUCCUCGCUGGCGCCGGCUGGGCAACAUUCCGAGCGGACCGUCCCCUCGCUAAUGGCGAAUGGGACCCA,0.372
9,GGCCGGCAUGGUCCCAGCCUCCUCGCUGGCGCCGGCUGGGCAACAUUCCGAGCGGCCCGUCCCCUCGGUAAUGGCGAAUGGGACCCA,1.14
10,GGCCGGCAUGGUCCCAGCCUCCUCGCUGGCGCCGGCUGGGCAACAUUCCGAGCGGUCCGUCCCCUCGGUAAUGGCGAAUGGGACCCA,1.11
11,GGCCGGCAUGGUCCCAGCCUCCUCGCUGGCGCCGGCUGGGCAACAUUCCGAGUGGACCGUCCCCUCGGUAAUGGAGAAUGGGACCCA,0.117
12,GGCCGGCAUGGUCCCAGCCUCCUCGCUGGCGCCGGCUGGGCAACAUUCCGAGAGGACCGUCCCCUCGGUAAUGGCGAAUGGUACCCA,0.359
13,GGCCGGCAUGGUCCCAGCCUCCUCGCUGGCGCCGGCUGGGCAACAUUCCGAGAGGACCGUCCCCUCGGUAAUGGCGAAUGGCACCCA,0.246
14,GGCCGGCAUGGUCCCAGCCUCCUCGCUGGCGCCGGCUGGGCAACAUUCCGAGAGGACCGUCCCCUCGGUAAUGGCGAAUGGGACGCA,0.923
15,GGCCGGCAUGGUCCCAGCCUCCUCGCUGGCGCCGGCUGGGCAACAUUCCGAGAGAACCGUCCCCUCGGUAAUGGCGAAUGGGACCCA,0.923
16,GGCCGGCAUGGUCCCAGCCUCCUCGCUGGCGCCGGCUGGGCAACAUUCCGAGAGCACCGUCCCCUCGGUAAUGGCGAAUGGGACCCA,0.912
17,GGCCGGCAUGGUCCCAGCCUCCUCGCUGGCGCCGGCUGGGCAACAUUCCGAGUGAACCGUCCCCUCGGUAAUGGCGAAUGGGACCCA,1.18
18,GGCCGGCAUGGUCCCAGCCUCCUCGCUGGCGCCGGCUGGGCAACAUUCCGAGCGGACCCUCCCCUCGGUAAUGGCGAAUGGGACCCA,0.958
19,GGCCGGCAUGGUCCCAGCCUCCUCGCUGGCGCCGGCUGGGCAACAUUCCGAGCGGACCAUCCCCUCGGUAAUGGCGAAUGGGACCCA,0.95
20,GGCCGGCAUGGUCCCAGCCUCCUCGCUGGCGCCGGCUGGGCAACAUUCCGAGUGGACCGUUCCCUCGGUAAUGGCGAAUGGGACCCA,0.994
21,GGCCGGCAUGGUCCCAGCCUCCUCGCUGGCGCCGGCUGGGCAACAUUCCGAGUGGACCGUGCCCUCGGUAAUGGCGAAUGGGACCCA,0.899
22,GGCCGGCAUGGUCCCAGCCUCCUCGCUGGCGCCGGCUGGGCAACAUUCCGAGAGGACCGUCCCCUAGGUAAUGGCGAAUGGGACCCA,0.794

row,Variant,self-cleavage
1,GGCCGGCAUGGUCCCAGCCUCCUCGCUGGCGCCGGCUGGGCAACAUUCCGAGCGGACCGUCCCCUCGGUAAUGGGGAAUGGGACCCA,0.0627
2,GGCCGGCAUGGUCCCAGCCUCCUCGCUGGCGCCGGCUGGGCAACAUUCCGAGCGGACCGUCCCCUCGGUAAUGGAGAAUGGGACCCA,0.175
3,GGCCGGCAUGGUCCCAGCCUCCUCGCUGGCGCCGGCUGGGCAACAUUCCGAGUGGAACGUCCCCUCGGUAAUGGCGAAUGGGACCCA,0.944
4,GGCCGGCAUGGUCCCAGCCUCCUCGCUGGCGCCGGCUGGGCAACAUUCCGAGUGGACCGUCCCCUCGGUAAUGGCGAAUGGGACGCA,0.818
5,GGCCGGCAUGGUCCCAGCCUCCUCGCUGGCGCCGGCUGGGCAACAUUCCGAGCGGACCGUCCCCUCGGUAAUGGCGAAUGGGACACA,0.955
6,GGCCGGCAUGGUCCCAGCCUCCUCGCUGGCGCCGGCUGGGCAACAUUCCGAGCGGACCGUCCCCUCGGUAAUGGCGAAUGGGACGCA,1.01
7,GGCCGGCAUGGUCCCAGCCUCCUCGCUGGCGCCGGCUGGGCAACAUUCCGAGUGGGCCGUCCCCUCGGUAAUGGCGAAUGGGACCCA,1.03
8,GGCCGGCAUGGUCCCAGCCUCCUCGCUGGCGCCGGCUGGGCAACAUUCCGAGUGGUCCGUCCCCUCGGUAAUGGCGAAUGGGACCCA,0.956
9,GGCCGGCAUGGUCCCAGCCUCCUCGCUGGCGCCGGCUGGGCAACAUUCCGAGUGGACCGUCACCUCGGUAAUGGCGAAUGGGACCCA,0.901
10,GGCCGGCAUGGUCCCAGCCUCCUCGCUGGCGCCGGCUGGGCAACAUUCCGAGUGGACCGUCCCCUCGGUAAUGGCGAAUGGGAACCA,0.754
11,GGCCGGCAUGGUCCCAGCCUCCUCGCUGGCGCCGGCUGGGCAACAUUCCGAGUGGACCGUCCCCUCGGUAAUGGCGAAUGGGAGCCA,0.554
12,GGCCGGCAUGGUCCCAGCCUCCUCGCUGGCGCCGGCUGGGCAACAUUCCGAGUGGACCGUCCCCUCGGUAAUGGCGAAUGGGUCCCA,0.609
13,GGCCGGCAUGGUCCCAGCCUCCUCGCUGGCGCCGGCUGGGCAACAUUCCGAGAGGACCGCCCCCUCGGUAAUGGCGAAUGGGACCCA,0.935
14,GGCCGGCAUGGUCCCAGCCUCCUCGCUGGCGCCGGCUGGGCAACAUUCCGAGAGGACCGUCCCCUCGGUAAUGGCGAAUGGGACCUA,0.881
15,GGCCGGCAUGGUCCCAGCCUCCUCGCUGGCGCCGGCUGGGCAACAUUCCGAGCGGACCGUCCCGUCGGUAAUGGCGAAUGGGACCCA,0.268
16,GGCCGGCAUGGUCCCAGCCUCCUCGCUGGCGCCGGCUGGGCAACAUUCCGAGCGCACCGUCCCCUCGGUAAUGGCGAAUGGGACCCA,1.05
17,GGCCGGCAUGGUCCCAGCCUCCUCGCUGGCGCCGGCUGGGCAACAUUCCGAGCGGACCGUCCCCUCGGUAAUGACGAAUGGGACCCA,0.405
18,GGCCGGCAUGGUCCCAGCCUCCUCGCUGGCGCCGGCUGGGCAACAUUCCGAGCGGACCGUCCCCUCGGCAAUGGCGAAUGGGACCCA,1.01
19,GGCCGGCAUGGUCCCAGCCUCCUCGCUGGCGCCGGCUGGGCAACAUUCCGAGCGGACCGUCCCCUCGGGAAUGGCGAAUGGGACCCA,1.14
20,GGCCGGCAUGGUCCCAGCCUCCUCGCUGGCGCCGGCUGGGCAACAUUCCGAGAGGACCGUCCCCUCGGUAAUGGCGAAUCGGACCCA,0.351
